Tests used:
anti-BCMA scFv P5A2 [1] = test: Biacore (SPR); recombinant H6
anti-BCMA scFv P5A2 [2] = test: Biacore (SPR); H6 purified from hybridoma
[3] = target: anti-BCMA CAR clone P5A2 expressed on the cell surface; test: flow cytometry, anti-id staining on the PE-A axis against APC-A, Anti-BCMA CAR Clone P5A2 cells; Q2 prints 0.42, Q4 33.1, Q1 0.15
[4] = target: anti-BCMA CAR clone P5A2 expressed on the cell surface; test: flow cytometry, SSC against CAR (anti-id) staining, cell line Anti-BCMA CAR clone P5A2, recombinant H6 at '0.063G' as printed; Q4 prints 72.4
[5] = target: anti-BCMA CAR clone P5A2 expressed on the cell surface; test: flow cytometry, SSC against CAR (anti-id) staining, cell line Anti-BCMA CAR clone P5A2, hybridoma-derived H6 at '0.063G' as printed; Q4 prints 74.0

Sequence of anti-BCMA CAR clone P5A2 expressed on the cell surface (chain, as listed by the source limits assumed): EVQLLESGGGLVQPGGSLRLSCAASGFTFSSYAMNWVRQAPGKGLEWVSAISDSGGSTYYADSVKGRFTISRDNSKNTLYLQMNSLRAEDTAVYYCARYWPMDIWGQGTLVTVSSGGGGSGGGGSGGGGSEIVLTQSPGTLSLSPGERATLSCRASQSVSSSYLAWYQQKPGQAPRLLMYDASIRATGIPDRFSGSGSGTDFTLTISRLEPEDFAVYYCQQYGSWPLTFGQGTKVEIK

B1: anti-idiotypic antibody clone E2008.51H1.H6 (H6) (antibody, V domains shown)
VH: QVTLKESGPGILQPSQTLSLTCSFSGFSLNTSAMGVGWIRQPSGKGLEWLAHIWWNDDHYYNPALKSRVTISKDASNNQVFLKIASVVTADTATYYCARSIAPVVPTPFAYWGQGTLVTVSA
VL: DIQMTQSSSSFSVSLGDRVTITCKASEDIYNRLAWFQQKPGNAPRLLISGATRLETGVPSRFSGSGSGKDYTLSITSLQTEDVGTYYCQQYWSSSWTFGGGTKLEIK
anti-BCMA scFv P5A2 [1]
  Kd: 3.71 nM
  koff: 0.00705 s⁻¹
  kon: 1.9e+06 M⁻¹ s⁻¹
  t1/2: 1.64 min
anti-BCMA scFv P5A2 [2]
  Kd: 3.73 nM
  koff: 0.00693 s⁻¹
  kon: 1.86e+06 M⁻¹ s⁻¹
  t1/2: 1.67 min
[3]
  percent of cells in anti-id-positive quadrant Q3: 66.3%
[4]
  percent of cells in CAR-positive gate Q3: 27.6%
[5]
  percent of cells in CAR-positive gate Q3: 26%

From patent US20240101710A1
